Assay results as given in patent publication US20260109782A1 (Chugai, published 2026).
Changes are numbered by the printed parent chain. Numbers in names are those of the source.

B1: A44/B26 (bispecific antibody, V domains shown)
VH 1: MQVQLQQSGAELAKPGASVKLSCKASGYTFTSSWMHWIKQRPGQGLEWLGYINPSSGYTKYNRKFRDKATLTADKSSSTAYMQLTSLTYEDSAVYYCARGGNGYYFDYWGQGTTLTVSS
VL 1: DIVMTQSHKFMSTSVGDRVSITCKASQDVGTAVAWYQQKPGQSPKLLIYWASTRHTGVPDRFTGSRYGTDFTLTISNVQSEDLADYLCQQYSNYITFGGGTKLELKR
VH 2: MQVQLQQSGPELVKPGASVKISCKASGYTFTDNNMDWVKQSHGKGLEWIGDINTKSGGSIYNQKFKGKATLTIDKSSSTAYMELRSLTSEDTAVYYCARRRSYGYYFDYWGQGTTLTVSS
VL 2: DIVLTQSQKFMSTSVGDRVSITCKASQNVGTAVAWYQQKPGQSPKALIYSASYRYSGVPDRFTGSGSGTDFTLTISNVQSEDLAEYFCQQYNSYPLTFGAGTKLEIKR
B2: chimeric bispecific antibody (A69/B26/BBA) (bispecific antibody, V domains shown)
VH 1: MEVQLQQSGAELVKPGASVKLSCTASGFNIKDYYMHWIKQRPGQGLEWLGYINPSSGYTKYNRKFRDKATLTADKSSSTAYMQLTSLTYEDSAVYYCARGGNGYYLDYWGQGTTLTVSS
VH 2: B1 VH 2
VL: B1 VL 1 with D28N, W50S, T53Y, H55Y, T56S
B3: bispecific antibody of A69H, B26H and hybrid L chain BBa (bispecific antibody, V domains shown)
VH 1: B2 VH 1
VH 2: B1 VH 2
VL: B1 VL 1 with V15I, D28N, W50S, T53Y, H55Y, T56S, N93S, I95L
B4: commonly shared L chain antibody of A44 H chain, B26 H chain and hybrid L chain ABA(G) (bispecific antibody, V domains shown)
VH 1: B1 VH 1
VH 2: B1 VH 2
VL: DIVMTQSHKFMSTSVGDRVSITCKASQDVGTAVAWYQQKPGQSPKLLIYSASYRYSGVPDRFTGSRYGTDFTLTISNVQSEDLADYLCQQYSNYITFGGGTKLELKRG
B5: commonly shared L chain antibody of A44 H chain, B26 H chain and hybrid L chain BBA(G) (bispecific antibody, V domains shown)
VH 1: B1 VH 1
VH 2: B1 VH 2
VL: B4 VL with D28N

These binders were tested against coagulation factor IX / activated coagulation factor IX (human) (UniProt P00740) (assay: cell-based or functional assay).
coagulation factor IX / activated coagulation factor IX (human), sequence (P00740 47-461): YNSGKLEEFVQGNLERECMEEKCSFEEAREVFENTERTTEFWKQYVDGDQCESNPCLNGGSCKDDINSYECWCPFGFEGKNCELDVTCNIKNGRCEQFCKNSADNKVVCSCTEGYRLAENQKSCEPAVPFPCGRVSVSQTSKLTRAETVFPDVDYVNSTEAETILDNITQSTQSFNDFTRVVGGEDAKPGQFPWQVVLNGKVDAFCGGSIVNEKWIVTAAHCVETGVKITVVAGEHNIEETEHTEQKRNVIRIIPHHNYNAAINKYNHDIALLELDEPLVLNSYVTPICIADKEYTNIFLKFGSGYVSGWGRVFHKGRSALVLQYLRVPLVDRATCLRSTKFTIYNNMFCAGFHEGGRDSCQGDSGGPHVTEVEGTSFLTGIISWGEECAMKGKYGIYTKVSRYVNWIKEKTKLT

Binder	reduction of coagulation time against no antibody [s]
B1	> 50

The binders below were run against human Factor X (Enzyme Research Laboratories, Inc.) (human, UniProt P00742 41-488) (assay: cell-based or functional assay).
human Factor X (Enzyme Research Laboratories, Inc.), sequence (P00742 other isoform, or with tags, fused parts or gaps limits assumed): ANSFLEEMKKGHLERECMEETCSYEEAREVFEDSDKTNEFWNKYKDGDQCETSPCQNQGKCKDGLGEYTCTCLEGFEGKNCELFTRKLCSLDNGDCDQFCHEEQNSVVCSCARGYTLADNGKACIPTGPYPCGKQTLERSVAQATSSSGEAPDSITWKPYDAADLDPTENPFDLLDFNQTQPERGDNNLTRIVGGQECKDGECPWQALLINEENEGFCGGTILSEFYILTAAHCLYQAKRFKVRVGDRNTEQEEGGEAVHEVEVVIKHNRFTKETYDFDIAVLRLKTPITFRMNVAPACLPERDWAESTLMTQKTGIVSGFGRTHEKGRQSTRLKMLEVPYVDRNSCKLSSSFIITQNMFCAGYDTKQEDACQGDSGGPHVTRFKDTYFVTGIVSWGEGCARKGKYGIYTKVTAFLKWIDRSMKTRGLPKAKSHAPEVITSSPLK

Binder	reduction of coagulation time against no antibody [s]
B2	≥ 80
B3	≥ 80
B1	≥ 50
B4	≥ 60

The binders below were run against coagulation factor IX / activated coagulation factor IX (human), P00740 (assay: cell-based or functional assay).
coagulation factor IX / activated coagulation factor IX (human), P00740, sequence (P00740 47-461): as the sequence (P00740 47-461) above

Binder	reduction of coagulation time against no antibody [s]
B5	> 70
B2	> 80
B3	> 80
B4	> 60
